Data on 5 molecules can be found in patent US20250326840A1 (QURE BIOTECHNOLOGY SHANGHAI, published 2025).

Assay [1] concerns the target T1, QP538 (SIRPαV9-mFC(mIgG2a)) (human, limits assumed).
T1 construct: also called human SIRPα V9 recombinant protein (QP538)
T1 chain: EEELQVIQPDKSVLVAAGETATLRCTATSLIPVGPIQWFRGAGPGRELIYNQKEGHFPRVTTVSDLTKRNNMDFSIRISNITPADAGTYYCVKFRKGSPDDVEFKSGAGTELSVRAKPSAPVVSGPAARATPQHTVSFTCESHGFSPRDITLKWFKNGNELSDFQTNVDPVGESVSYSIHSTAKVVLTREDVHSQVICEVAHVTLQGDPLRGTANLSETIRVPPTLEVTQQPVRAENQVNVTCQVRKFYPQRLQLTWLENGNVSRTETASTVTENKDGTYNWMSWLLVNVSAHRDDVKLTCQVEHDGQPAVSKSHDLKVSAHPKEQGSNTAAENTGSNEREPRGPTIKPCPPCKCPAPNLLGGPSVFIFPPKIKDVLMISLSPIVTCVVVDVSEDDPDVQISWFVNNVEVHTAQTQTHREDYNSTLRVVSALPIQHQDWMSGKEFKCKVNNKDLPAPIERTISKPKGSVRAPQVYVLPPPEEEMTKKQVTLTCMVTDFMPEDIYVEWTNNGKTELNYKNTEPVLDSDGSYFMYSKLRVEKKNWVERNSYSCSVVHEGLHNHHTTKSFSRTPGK
As to the kind of experiment: ELISA, human SIRPα V9 recombinant protein (QP538) coated, HRP anti-human Fc detection. A general note: An ELISA detects its analyte on a solid surface through an enzyme-linked reagent.

The target of assay [2] is T2, QP534 (SIRPαV5-mFC(mIgG2a)) (human, limits assumed).
T2 construct: also called human SIRPα V5 recombinant protein (QP534)
T2 chain: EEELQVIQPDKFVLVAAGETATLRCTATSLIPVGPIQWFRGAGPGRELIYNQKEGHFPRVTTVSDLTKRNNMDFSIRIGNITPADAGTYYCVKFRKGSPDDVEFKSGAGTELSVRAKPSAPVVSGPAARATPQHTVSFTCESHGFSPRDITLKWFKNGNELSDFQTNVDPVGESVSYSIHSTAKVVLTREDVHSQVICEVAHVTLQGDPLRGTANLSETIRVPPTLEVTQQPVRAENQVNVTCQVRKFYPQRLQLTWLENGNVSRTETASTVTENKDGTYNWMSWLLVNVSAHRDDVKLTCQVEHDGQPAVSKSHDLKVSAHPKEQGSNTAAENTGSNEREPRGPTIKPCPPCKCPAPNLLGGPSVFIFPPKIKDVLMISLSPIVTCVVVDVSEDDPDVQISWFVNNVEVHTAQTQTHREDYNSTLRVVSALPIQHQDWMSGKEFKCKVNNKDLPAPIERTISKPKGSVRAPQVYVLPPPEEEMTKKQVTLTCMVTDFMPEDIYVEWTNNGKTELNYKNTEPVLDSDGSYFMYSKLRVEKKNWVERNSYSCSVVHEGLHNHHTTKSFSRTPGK
As to the kind of experiment: ELISA, human SIRPα V5 recombinant protein (QP534) coated, HRP anti-human Fc detection.

The target in assay [3] is T3, QP533 (SIRPαV4-mFC(mIgG2a)) (human, limits assumed).
T3 construct: also called human SIRPα V4 recombinant protein (QP533)
T3 chain: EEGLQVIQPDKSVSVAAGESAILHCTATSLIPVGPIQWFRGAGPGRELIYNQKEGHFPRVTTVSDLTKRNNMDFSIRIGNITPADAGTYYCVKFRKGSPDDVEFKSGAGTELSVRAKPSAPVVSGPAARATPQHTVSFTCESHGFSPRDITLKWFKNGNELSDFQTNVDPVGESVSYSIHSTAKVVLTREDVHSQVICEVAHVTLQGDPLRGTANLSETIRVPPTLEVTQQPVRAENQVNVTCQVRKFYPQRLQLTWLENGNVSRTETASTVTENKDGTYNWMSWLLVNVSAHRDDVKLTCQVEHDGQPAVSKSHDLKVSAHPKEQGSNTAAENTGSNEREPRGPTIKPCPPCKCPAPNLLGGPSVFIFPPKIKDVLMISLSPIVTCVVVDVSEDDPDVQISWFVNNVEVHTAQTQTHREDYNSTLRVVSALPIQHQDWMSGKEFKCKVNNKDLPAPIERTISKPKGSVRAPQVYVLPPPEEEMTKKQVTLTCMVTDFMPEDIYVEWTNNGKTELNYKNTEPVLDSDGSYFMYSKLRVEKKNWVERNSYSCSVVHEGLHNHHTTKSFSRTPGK
As to the kind of experiment: ELISA, human SIRPα V4 recombinant protein (QP533) coated, HRP anti-human Fc detection.

The target in assay [4] is T4, SIRPα V5 fusion Fc (mouse IgG2a) (human, limits assumed).
T4 chain: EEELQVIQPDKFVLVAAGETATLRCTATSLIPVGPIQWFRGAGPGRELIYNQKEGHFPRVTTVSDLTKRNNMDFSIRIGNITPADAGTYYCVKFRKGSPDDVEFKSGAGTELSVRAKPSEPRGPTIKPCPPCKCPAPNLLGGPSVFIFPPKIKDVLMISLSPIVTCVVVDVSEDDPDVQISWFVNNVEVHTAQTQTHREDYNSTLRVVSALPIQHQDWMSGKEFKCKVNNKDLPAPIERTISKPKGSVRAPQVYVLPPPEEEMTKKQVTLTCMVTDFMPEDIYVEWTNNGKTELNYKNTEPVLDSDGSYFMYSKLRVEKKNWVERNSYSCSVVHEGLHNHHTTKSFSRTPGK
As to the kind of experiment: ELISA, SIRPα V5-mouse IgG2a Fc coated, anti-hFab detection; unit from the x axis Log(Conc.(nM)).

For assay [5], the target named is T5, human SIRPα V2 on THP-1 cells (human, UniProt P78324 31-504).
T5 construct: whole, on cells; also called THP-1 (human SIRPα V2)
T5 sequence (P78324 other isoform, or with tags, fused parts or gaps limits assumed): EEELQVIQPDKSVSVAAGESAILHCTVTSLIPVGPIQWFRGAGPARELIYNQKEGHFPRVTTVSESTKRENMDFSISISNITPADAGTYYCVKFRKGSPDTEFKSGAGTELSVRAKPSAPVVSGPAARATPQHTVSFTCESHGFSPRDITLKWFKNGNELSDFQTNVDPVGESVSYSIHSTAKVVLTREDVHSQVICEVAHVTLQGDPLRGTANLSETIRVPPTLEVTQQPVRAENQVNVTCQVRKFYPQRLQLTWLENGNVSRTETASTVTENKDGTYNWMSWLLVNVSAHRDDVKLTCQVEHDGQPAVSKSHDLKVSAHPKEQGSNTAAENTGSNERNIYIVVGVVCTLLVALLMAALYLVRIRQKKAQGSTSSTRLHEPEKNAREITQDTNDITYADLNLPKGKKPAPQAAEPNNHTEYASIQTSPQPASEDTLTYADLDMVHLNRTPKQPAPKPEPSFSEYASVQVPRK
The assay can be described thus: FACS on THP-1 cells.

Assay [6] deals with T6, QP532 (SIRPαV3-mFC(mIgG2a)) (human).
T6 construct: also called human SIRPα V3 recombinant protein (QP532)
As to the kind of experiment: ELISA, human SIRPα V3 recombinant protein (QP532) coated, HRP anti-human Fc detection.

The assay “QP095 (human SIRPα V2 …)” concerns the target T7, QP095 (human SIRPα V2 ECD(E31-R370)-mFC(IgG2a)) (human).
T7 construct: also called human SIRPα V2 recombinant protein (QP095)
As to the kind of experiment: ELISA, human SIRPα V2 recombinant protein (QP095) coated, HRP anti-human Fc detection.

In general, EC50 refers to the concentration at which the effect is half-maximal.

B1: QP250251 (18D5 analog) (antibody, human IgG4 S228P, kappa, V domains shown)
VH: QVQLQQPGAELVRPGSSVKLSCKASGYTFTSYWVHWVKQRPIQGLEWIGNIDPSDSDTHYNQKFKDKASLTVDKSSSTAYMQLSSLTFEDSAVYYCVRGGTGTMAWFAYWGQGTLVTVSA
VL: DVVMTQTPLSLPVSLGDQASISCRSSQSLVHSYGNTYLYWYLQKPGQSPKLLIYRVSNRFSGVPDRFSGSGSGTDFTLKISRVEAEDLGVYFCFQGTHVPYTFGSGTKLEIKR
notes: also called SIRPα antibody 18D5 from OSE
In the case of B1, the EC50 in assay [1] amounted to 854 pM; in assay [2], 438 pM; in assay [3], 540 pM; in assay [4], 130 pM. In assay [5], the binding result is on record as “no binding”.

B2: QP256279 (antibody, human IgG4, V domains shown)
VH: QVQLVQSGAEVKKPGASVKVSCKASGYTFTNYWINWVRQAPGQGLEWIAMIDPSDSETHYNQIFKDRATLTTDTSTSTAYMELRSLRSDDTAVYYCAMDYGSLYAMDYWGRGTLVTVSS
VL: DIVLTQSPDSLAVSLGERATINCRASQSVRSSGYNWIFWYQQKPGQPPKLLIYLASNRDSGVPDRFSGSGSGTDFTLTISSLQAEDVAVYYCQHSRELPTFGQGTKLEIK
notes: Human IgG4 heavy constant region and kappa CL
B2 yielded an EC50 in assay [4] of 69.1 pM.

B3: QP32700279 (antibody, human IgG1, kappa, L234A L235A, V domains shown)
VH: QVQLVQSGAEVKKPGASVKVSCKASGYTFTNYWINWVRQAPGQGLEWIAMIDPSDSETHYNQIFKDRATLTTDTSTSTAYMELRSLRSDDTAVYYCAMDYGSLYAMDYWGRGTLVTVSS
VL: DIVLTQSPDSLAVSLGERATINCRASQSVRSSGYNWIFWYQQKPGQPPKLLIYLASNRDSGVPDRFSGSGSGTDFTLTISSLQAEDVAVYYCQHSRELPTFGQGTKLEIKR
notes: also called SIRPα monoclonal antibody CHO71
Take B3: the EC50 in assay [1] worked out at 361 pM; in assay [6], 144 pM; in assay [2], 150 pM; in assay [3], 151 pM; with QP095 (human SIRPα V2 …), 186 pM; in assay [5], 74.3 pM.

B4: QP026249 (KWAR23 analog) (antibody, human IgG4 S228P, kappa)
heavy: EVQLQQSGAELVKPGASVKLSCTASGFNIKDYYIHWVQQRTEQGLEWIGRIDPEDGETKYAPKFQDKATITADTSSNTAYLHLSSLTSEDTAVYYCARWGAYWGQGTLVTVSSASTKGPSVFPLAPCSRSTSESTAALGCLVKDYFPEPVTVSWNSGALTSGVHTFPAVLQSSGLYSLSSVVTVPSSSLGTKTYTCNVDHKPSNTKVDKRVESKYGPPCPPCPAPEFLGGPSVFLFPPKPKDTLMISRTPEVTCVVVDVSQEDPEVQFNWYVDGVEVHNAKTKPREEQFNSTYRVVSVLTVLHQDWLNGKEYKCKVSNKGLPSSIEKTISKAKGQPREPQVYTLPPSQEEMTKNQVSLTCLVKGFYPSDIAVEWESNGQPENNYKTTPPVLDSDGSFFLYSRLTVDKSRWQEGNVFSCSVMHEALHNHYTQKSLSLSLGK
light: QIVLTQSPAIMSASPGEKVTLTCSASSSVSSSYLYWYQQKPGSSPKLWIYSTSNLASGVPARFSGSGSGTSYSLTISSMEAEDAASYFCHQWSSYPRTFGAGTKLELKRTVAAPSVFIFPPSDEQLKSGTASVVCLLNNFYPREAKVQWKVDNALQSGNSQESVTEQDSKDSTYSLSSTLTLSKADYEKHKVYACEVTHQGLSSPVTKSFNRGEC
notes: also called KAWA23 analog; control antibody KWAR23 (QP026249), human IgG4
For B4, the concentration giving a half-maximal response (EC50) in assay [1] was 804 pM; in assay [6] it was 433 pM; in assay [2] it was 418 pM; in assay [3], 439 pM; with QP095 (human SIRPα V2 …) it was 467 pM; in assay [4], 144 pM. Besides, it took 261 pM to reach a half-maximal effect in assay [5] (EC50).

B5: QP37503751 (1H9 analog) (antibody, human IgG1, kappa, N297A, V domains shown)
VH: QVQLVQSGAEVKKPGASVKVSCKASGYTFTSYWITWVKQAPGQGLEWIGDIYPGSGSTNHIEKFKSKATLTVDTSISTAYMELSRLRSDDTAVYYCATGYGSSYGYFDYWGQGTLVTVSS
VL: DIQMTQSPSSLSASVGDRVTITCRASENIYSYLAWYQQKPGKAPKLLIYTAKTLAEGVPSRFSGSGSGTDFTLTISSLQPEDFATYYCQHQYGPPFTFGQGTKLEIKR
notes: also called hz1H9 hIgG1(N297A)
In the case of B5, the EC50 was determined as 438 pM in assay [1]; 310 pM in assay [6]; 167 pM in assay [2]; 169 pM in assay [3]; 218 pM with QP095 (human SIRPα V2 …); 210 pM in assay [5].
